Series [1] has as its target T1, KpDnaB helicase (Klebsiella pneumoniae, UniProt A6TGW0 1-471). Put plainly: EMSA; 16.7 uM galangin; apparent Kd; 20 mM HEPES pH 7.0, 100 mM NaCl, 25 C, 30 min, 1.7 nM dT30, no Mg2+ or nucleotide stated; native 8% PAGE in TBE at 4 C.
Series [2] addresses T1, KpDnaB helicase. Nature of the series: EMSA; 16.7 uM quercetin; apparent Kd; 20 mM HEPES pH 7.0, 100 mM NaCl, 25 C, 30 min, 1.7 nM dT30, no Mg2+ or nucleotide stated; native 8% PAGE in TBE at 4 C. A general note: In EMSA bound probe runs differently from free probe, usually more slowly.
The target in series [3] is T1, KpDnaB helicase. Nature of the series: EMSA; 16.7 uM myricetin; apparent Kd; 20 mM HEPES pH 7.0, 100 mM NaCl, 25 C, 30 min, 1.7 nM dT30, no Mg2+ or nucleotide stated; native 8% PAGE in TBE at 4 C.
Series [4] has as its target T1, KpDnaB helicase. Nature of the series: EMSA; no flavonol; apparent Kd; 20 mM HEPES pH 7.0, 100 mM NaCl, 25 C, 30 min, 1.7 nM dT30, no Mg2+ or nucleotide stated; native 8% PAGE in TBE at 4 C.
In series [5] the target is T1, KpDnaB helicase. Nature of the series: EMSA; 16.7 uM kaempferol; apparent Kd; 20 mM HEPES pH 7.0, 100 mM NaCl, 25 C, 30 min, 1.7 nM dT30, no Mg2+ or nucleotide stated; native 8% PAGE in TBE at 4 C.

Regarding TTTTTTTTTTTTTTTTTTTTTTTTTTTTTT (ssDNA) [dT30], the Kd in series [1] stood at 1.03 ± 0.06 µM; in series [2], 1.03 ± 0.07 µM; in series [3] it was 1.11 ± 0.05 µM; in series [4] it was 0.97 ± 0.07 µM; in series [5], 1.1 ± 0.05 µM.
